Values quoted from earlier work in US11820970B2, “High throughput protein-protein interaction screening in yeast liquid culture” (University of Washington, priority 2016, dated 2023).

T1: BclW (Homo sapiens, UniProt Q92843)
T1 sequence (Q92843 1-193): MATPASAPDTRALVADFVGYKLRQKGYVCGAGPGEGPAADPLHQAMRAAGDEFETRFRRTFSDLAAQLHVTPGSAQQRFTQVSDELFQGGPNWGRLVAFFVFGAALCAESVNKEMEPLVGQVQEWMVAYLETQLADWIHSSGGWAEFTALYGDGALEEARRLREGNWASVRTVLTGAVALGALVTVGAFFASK

T2: Bfl1 (Homo sapiens, UniProt Q16548)
T2 sequence (Q16548 1-175): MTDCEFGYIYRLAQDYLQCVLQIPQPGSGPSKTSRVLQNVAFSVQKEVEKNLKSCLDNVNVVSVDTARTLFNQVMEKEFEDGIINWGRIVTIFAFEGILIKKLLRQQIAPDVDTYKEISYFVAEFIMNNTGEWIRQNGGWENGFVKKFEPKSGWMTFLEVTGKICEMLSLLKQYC

T3: BclB (Homo sapiens, UniProt Q9HD36)
T3 sequence (Q9HD36 1-204): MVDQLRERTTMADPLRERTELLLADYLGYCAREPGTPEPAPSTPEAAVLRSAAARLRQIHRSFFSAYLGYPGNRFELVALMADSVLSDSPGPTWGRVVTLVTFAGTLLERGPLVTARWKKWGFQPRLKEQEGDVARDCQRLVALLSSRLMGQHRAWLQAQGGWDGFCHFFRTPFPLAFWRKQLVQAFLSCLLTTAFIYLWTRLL

B1: B-CDP01: de novo (engineered) binding protein for Bcl2 family homologues, displayed as SAP (protein)
chain: ADPKKVLDKAKDQAENRVRELKQELERLYKEARKLDLTQEMRRKLEWRYIAAMLKAIGDILNAIAQAENEADKLKKAGLVNSQQLDELRRRLEELAKEAARKAHDYGREFQLKLEY
B2: X-CDP07: de novo (engineered) binding protein for Bcl2 family homologues, displayed as SAP (protein)
chain: ADPKKVLDKAKDRAENVVRKLKKELEELYKEARKLDLTQEMRDRIRLAAIAARIAAFGDIFHAIMEALEEARKLKKAGLVNSQQLDELKRRLEELDEEAAQRAEKLGKEFELKLEY

How the values were obtained:
BclW = target: T1, BclW; details: binder vs BclW; known affinities; read-out: AFFINITY
Bcl2 = Bcl2 (Homo sapiens, UniProt P10415); details: binder vs Bcl2; known affinities; read-out: AFFINITY
Mcl1 = Mcl1 (Homo sapiens, UniProt Q07820); details: binder vs Mcl1; known affinities; read-out: AFFINITY
BclXL = BclXL (Homo sapiens, UniProt Q07817); details: binder vs BclXL; known affinities; read-out: AFFINITY
Bfl1 = target: T2, Bfl1; details: binder vs Bfl1; known affinities; read-out: AFFINITY
BclB = target: T3, BclB; details: binder vs BclB; known affinities; read-out: AFFINITY

Mcl1, sequence (Q07820 whole entry, species assumed): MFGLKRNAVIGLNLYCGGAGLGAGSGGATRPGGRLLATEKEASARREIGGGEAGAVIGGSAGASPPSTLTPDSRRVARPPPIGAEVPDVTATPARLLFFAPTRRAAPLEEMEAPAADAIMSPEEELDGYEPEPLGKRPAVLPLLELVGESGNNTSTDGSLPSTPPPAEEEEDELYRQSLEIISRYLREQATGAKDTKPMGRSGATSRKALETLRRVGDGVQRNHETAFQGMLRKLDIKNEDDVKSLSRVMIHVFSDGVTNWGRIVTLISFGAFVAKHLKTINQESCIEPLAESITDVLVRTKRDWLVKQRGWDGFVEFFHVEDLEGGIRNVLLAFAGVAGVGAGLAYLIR
BclXL, sequence (Q07817 whole entry, species assumed): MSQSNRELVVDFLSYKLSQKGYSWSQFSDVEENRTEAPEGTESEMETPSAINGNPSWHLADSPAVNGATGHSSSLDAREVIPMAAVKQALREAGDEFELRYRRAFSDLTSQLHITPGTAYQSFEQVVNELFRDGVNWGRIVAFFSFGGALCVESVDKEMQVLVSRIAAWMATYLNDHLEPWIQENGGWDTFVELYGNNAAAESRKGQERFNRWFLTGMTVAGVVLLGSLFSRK
Bcl2, sequence (P10415 whole entry, species assumed): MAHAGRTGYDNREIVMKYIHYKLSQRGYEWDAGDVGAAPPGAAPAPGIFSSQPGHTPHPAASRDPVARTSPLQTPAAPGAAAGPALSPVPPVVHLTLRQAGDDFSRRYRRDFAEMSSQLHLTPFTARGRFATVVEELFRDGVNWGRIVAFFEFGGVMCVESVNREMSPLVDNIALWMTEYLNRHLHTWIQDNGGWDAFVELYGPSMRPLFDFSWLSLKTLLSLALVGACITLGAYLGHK

Molecule | Kd (BclW) [nM] | Kd (Bcl2) [nM] | Kd (Mcl1) [nM] | Kd (BclXL) [nM] | Kd (Bfl1) [nM] | Kd (BclB) [nM]
B1 | 2010 | 17.3 | 0.46 | 20.2 | 518 | 8.33
B2 | 14.9 | 3.81 | 17.4 | 0.59 | 7050 | 107
